Data published in the supplement of paper PMC7877785.
± gives the uncertainty stated by the source.

Experiment: self-splicing fitness, log relative to wild type (ln ratio); higher = more splicing; Tetrahymena group I intron in knt gene, E. coli kanamycin selection, DiMSum; sequences stand for … in CUCUCU…GGAGGGAAAAGUUAUCAGGCAUGCACCUGGUAGCUAGUCUUUAAACCAAUAGAUUGCAUCGGUUUAAAAGGCAAGACCGUCAAAUUGCGGGAAAGGGGUCAACAGCCGUUCAGUACCAAGUCUCAGGGGAAACUUUGAGAUGGCCUUGCAAAGGGUAUGGUAAUAAGCUGACGGACAUGGUCCUAACCACGCAGCCAAGUCCUAAGUCAACAGAUCUUCUGUUGAUAUGGAUGCAGUUCACAGACUAAAUGUCGGUCGGGGAAGAUGUAUUCUUCUCAUAAGAUAUAGUCGGACCUCUCCUUAAUGGGAGCUAGCGGAUGAAGUGAUGCAACACUGGAGCCGCUGGGAACUAAUUUGUAUGCGAAAGUAUAUUGAUUAGUUUUGGAGUACUCGUGGUCG
How it was run: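 Six replicate transformations of E. coli BL21(DE3) with a pET-22b(+) library were grown overnight at 37°C or 30°C. The library randomised all eight P1ex-region intron nucleotides, the intron lying in the knt kanamycin-resistance gene, and plates were LB agar with or without 25 μg/mL kanamycin plus 100 μg/mL carbenicillin, 50 μM IPTG and 0.2% rhamnose. Pooled colonies were amplicon-sequenced on an Illumina HiSeq 2500, and fitness is the DiMSum error-weighted combination of wild-type-normalised replicate fold changes, kanamycin versus none.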

AGACAGCAAUAUUACGCCGA
self-splicing fitness (ln) (30 °C): -2.06 ± 0.089
self-splicing fitness (ln) (37 °C): -0.863 ± 0.094

UUAUAGCAAUAUUACGCGUA
self-splicing fitness (ln) (30 °C): -0.829 ± 0.14
self-splicing fitness (ln) (37 °C): -1.17 ± 0.14

UCCAAGCAAUAUUACGCUAG
self-splicing fitness (ln) (30 °C): -3.67 ± 0.32
self-splicing fitness (ln) (37 °C): -3.6 ± 0.35

CUGGAGCAAUAUUACGAGUU
self-splicing fitness (ln) (30 °C): -2.26 ± 0.13
self-splicing fitness (ln) (37 °C): -3.51 ± 0.33

CUCUAGCAAUAUUACGAUUA
self-splicing fitness (ln) (30 °C): -3.01 ± 0.29
self-splicing fitness (ln) (37 °C): -2.85 ± 0.25

UUCCAGCAAUAUUACGCGGG
self-splicing fitness (ln) (30 °C): -3.83 ± 0.29
self-splicing fitness (ln) (37 °C): -2.69 ± 0.29

UUGAAGCAAUAUUACGAGCA
self-splicing fitness (ln) (30 °C): -0.381 ± 0.12
self-splicing fitness (ln) (37 °C): 0.224 ± 0.14

AAGCAGCAAUAUUACGGCAC
self-splicing fitness (ln) (30 °C): -0.574 ± 0.072
self-splicing fitness (ln) (37 °C): -0.149 ± 0.098

CGUCAGCAAUAUUACGGCAA
self-splicing fitness (ln) (30 °C): -1.75 ± 0.14
self-splicing fitness (ln) (37 °C): -1.89 ± 0.13

GCGCAGCAAUAUUACGAUUU
self-splicing fitness (ln) (30 °C): -1.07 ± 0.094
self-splicing fitness (ln) (37 °C): 0.585 ± 0.11

CUCCAGCAAUAUUACGCUAU
self-splicing fitness (ln) (30 °C): -3.89 ± 0.33
self-splicing fitness (ln) (37 °C): -2.44 ± 0.22

AAAAAGCAAUAUUACGACUA
self-splicing fitness (ln) (30 °C): -0.0366 ± 0.1
self-splicing fitness (ln) (37 °C): 0.028 ± 0.1

ACUCAGCAAUAUUACGUAGU
self-splicing fitness (ln) (30 °C): -2.86 ± 0.13
self-splicing fitness (ln) (37 °C): -1.35 ± 0.12

GGUCAGCAAUAUUACGUGCU
self-splicing fitness (ln) (30 °C): -1.5 ± 0.052
self-splicing fitness (ln) (37 °C): -0.199 ± 0.067

AUGGAGCAAUAUUACGAAGG
self-splicing fitness (ln) (30 °C): -3 ± 0.23
self-splicing fitness (ln) (37 °C): -2.29 ± 0.34

CGUCAGCAAUAUUACGCAAU
self-splicing fitness (ln) (30 °C): -1.37 ± 0.1
self-splicing fitness (ln) (37 °C): -2.12 ± 0.24

CCGUAGCAAUAUUACGUCUA
self-splicing fitness (ln) (30 °C): -2.84 ± 0.16
self-splicing fitness (ln) (37 °C): -1.92 ± 0.18

UUGGAGCAAUAUUACGAGUA
self-splicing fitness (ln) (37 °C): -2.45 ± 0.48

CUCUAGCAAUAUUACGGCUA
self-splicing fitness (ln) (30 °C): -2.32 ± 0.26
self-splicing fitness (ln) (37 °C): -1.28 ± 0.24

CACAAGCAAUAUUACGUCCA
self-splicing fitness (ln) (30 °C): -3.23 ± 0.2
self-splicing fitness (ln) (37 °C): -1.59 ± 0.12

UCUGAGCAAUAUUACGCACG
self-splicing fitness (ln) (30 °C): -3.08 ± 0.33

AAGGAGCAAUAUUACGAACG
self-splicing fitness (ln) (37 °C): -0.373 ± 0.27

CGAGAGCAAUAUUACGGUGA
self-splicing fitness (ln) (30 °C): -3.9 ± 0.22
self-splicing fitness (ln) (37 °C): -2.44 ± 0.2

UACAAGCAAUAUUACGUGCA
self-splicing fitness (ln) (30 °C): -0.352 ± 0.083
self-splicing fitness (ln) (37 °C): -0.366 ± 0.1

CCGCAGCAAUAUUACGAUUC
self-splicing fitness (ln) (30 °C): -3.56 ± 0.19
self-splicing fitness (ln) (37 °C): -3.03 ± 0.21

CCCCAGCAAUAUUACGUGGC
self-splicing fitness (ln) (30 °C): -4.37 ± 0.14
self-splicing fitness (ln) (37 °C): -2.74 ± 0.12

UUUGAGCAAUAUUACGUUAA
self-splicing fitness (ln) (30 °C): -2.96 ± 0.29
self-splicing fitness (ln) (37 °C): -1.57 ± 0.22

CGGGAGCAAUAUUACGUAUG
self-splicing fitness (ln) (30 °C): -3.99 ± 0.35

CUGAAGCAAUAUUACGUAAC
self-splicing fitness (ln) (37 °C): -1.22 ± 0.24

GAAGAGCAAUAUUACGCCAU
self-splicing fitness (ln) (37 °C): -1.61 ± 0.37

ACAGAGCAAUAUUACGACCA
self-splicing fitness (ln) (30 °C): -0.827 ± 0.21

GAACAGCAAUAUUACGUUGG
self-splicing fitness (ln) (30 °C): -2.51 ± 0.08
self-splicing fitness (ln) (37 °C): -1.94 ± 0.1

UUAAAGCAAUAUUACGCAGA
self-splicing fitness (ln) (30 °C): -0.209 ± 0.11
self-splicing fitness (ln) (37 °C): -0.133 ± 0.13

AUCGAGCAAUAUUACGACAU
self-splicing fitness (ln) (30 °C): -0.347 ± 0.013
self-splicing fitness (ln) (37 °C): 0.0643 ± 0.033

UUAAAGCAAUAUUACGUCUC
self-splicing fitness (ln) (30 °C): -2.76 ± 0.13
self-splicing fitness (ln) (37 °C): -1.4 ± 0.13

ACUAAGCAAUAUUACGUGCU
self-splicing fitness (ln) (30 °C): -1.62 ± 0.073
self-splicing fitness (ln) (37 °C): -1.06 ± 0.099

CGGGAGCAAUAUUACGCACU
self-splicing fitness (ln) (30 °C): -2.4 ± 0.24
self-splicing fitness (ln) (37 °C): -2.65 ± 0.25

ACCUAGCAAUAUUACGGCCG
self-splicing fitness (ln) (30 °C): -2.22 ± 0.43
self-splicing fitness (ln) (37 °C): -1 ± 0.34

GUAUAGCAAUAUUACGUACA
self-splicing fitness (ln) (30 °C): -2.07 ± 0.28
self-splicing fitness (ln) (37 °C): -0.449 ± 0.23

UGGCAGCAAUAUUACGAUAG
self-splicing fitness (ln) (30 °C): -2.32 ± 0.098
self-splicing fitness (ln) (37 °C): -0.473 ± 0.094

GAGGAGCAAUAUUACGUGUC
self-splicing fitness (ln) (30 °C): -3.51 ± 0.27
self-splicing fitness (ln) (37 °C): -1.91 ± 0.2

GACUAGCAAUAUUACGCAGU
self-splicing fitness (ln) (30 °C): -3.21 ± 0.31
self-splicing fitness (ln) (37 °C): -2.17 ± 0.2

CAACAGCAAUAUUACGAAAU
self-splicing fitness (ln) (30 °C): -2.7 ± 0.12
self-splicing fitness (ln) (37 °C): -2.47 ± 0.2

UUGCAGCAAUAUUACGUAUC
self-splicing fitness (ln) (30 °C): -3.83 ± 0.16
self-splicing fitness (ln) (37 °C): -2.4 ± 0.15

AUCUAGCAAUAUUACGCCCC
self-splicing fitness (ln) (30 °C): -0.911 ± 0.15
self-splicing fitness (ln) (37 °C): 0.223 ± 0.22

GACGAGCAAUAUUACGCACG
self-splicing fitness (ln) (30 °C): -3.63 ± 0.23
self-splicing fitness (ln) (37 °C): -2.61 ± 0.25

AAUUAGCAAUAUUACGGAAC
self-splicing fitness (ln) (30 °C): -2.77 ± 0.13
self-splicing fitness (ln) (37 °C): -2.18 ± 0.2

CAUGAGCAAUAUUACGCAGU
self-splicing fitness (ln) (30 °C): -4.2 ± 0.39
self-splicing fitness (ln) (37 °C): -2.63 ± 0.23

AAUCAGCAAUAUUACGAUGU
self-splicing fitness (ln) (30 °C): 0.218 ± 0.053
self-splicing fitness (ln) (37 °C): 0.543 ± 0.08

GUCGAGCAAUAUUACGGUGG
self-splicing fitness (ln) (30 °C): -3.54 ± 0.27
self-splicing fitness (ln) (37 °C): -2.24 ± 0.22

UACGAGCAAUAUUACGUACG
self-splicing fitness (ln) (30 °C): -3.76 ± 0.23
self-splicing fitness (ln) (37 °C): -2.34 ± 0.18

GAGUAGCAAUAUUACGGGCG
self-splicing fitness (ln) (30 °C): -1.89 ± 0.12
self-splicing fitness (ln) (37 °C): -0.779 ± 0.12

CUAAAGCAAUAUUACGACUC
self-splicing fitness (ln) (30 °C): -4.65 ± 0.46
self-splicing fitness (ln) (37 °C): -2.38 ± 0.31

AUAUAGCAAUAUUACGGACG
self-splicing fitness (ln) (30 °C): -2.09 ± 0.16
self-splicing fitness (ln) (37 °C): -1.07 ± 0.19

UGGAAGCAAUAUUACGUUAA
self-splicing fitness (ln) (30 °C): -0.681 ± 0.36
self-splicing fitness (ln) (37 °C): -0.67 ± 0.3

AAAUAGCAAUAUUACGACUA
self-splicing fitness (ln) (30 °C): -0.367 ± 0.12
self-splicing fitness (ln) (37 °C): 0.06 ± 0.13

CGAUAGCAAUAUUACGUCCU
self-splicing fitness (ln) (30 °C): -1.29 ± 0.16
self-splicing fitness (ln) (37 °C): -0.541 ± 0.19

GCCGAGCAAUAUUACGCGCG
self-splicing fitness (ln) (30 °C): -2.53 ± 0.25

AUGAAGCAAUAUUACGGCUA
self-splicing fitness (ln) (30 °C): 0.423 ± 0.092
self-splicing fitness (ln) (37 °C): 0.486 ± 0.11

GCCGAGCAAUAUUACGGUUA
self-splicing fitness (ln) (30 °C): -0.775 ± 0.071
self-splicing fitness (ln) (37 °C): -0.0707 ± 0.07

AGGGAGCAAUAUUACGUCUU
self-splicing fitness (ln) (30 °C): -2.53 ± 0.15
self-splicing fitness (ln) (37 °C): -0.226 ± 0.15

GGCGAGCAAUAUUACGCUAA
self-splicing fitness (ln) (30 °C): -2.83 ± 0.32
self-splicing fitness (ln) (37 °C): -1.02 ± 0.22

UCGGAGCAAUAUUACGCGCU
self-splicing fitness (ln) (37 °C): -2.3 ± 0.37
